One series concerns the target yeast alpha-glucosidase (Saccharomyces cerevisiae, UniProt P53341). It is filed as biochemical. Particulars: for inhibitory effect on alpha-glucosidase activity (in words): 0.02 units of yeast alpha-glucosidase; for Specific Inhibitory Activity: decrease of 1 umole of glucose production from maltose per microgram of salivary protein per hour, stages of CON-1 purification; for change of inhibitory activity after removal of acetylglucosamine (in words): incubation with N-acetylglucosaminidase. The method, then:
The enzyme of alpha-glucosidase activity is according to the procedure as described by Sigma Chemical Company, St. Louis, Mo. Routinely, the enzyme reaction mixture contains 10 mM maltose and 50 ul of purified alpha-glucosidase or 0.02 units of yeast alpha-glucosidase in a final volume of 60 ul of 25 mM sodium acetate buffer, pH 5.6. The reaction mixture is incubated at 37° C. for 60 minutes, and the production of glucose is determined by the glucose oxidase reagent (Worthington Statzyme Glucose 500) in accordance with recommendation of Worthington Biochemical Corporation.

The test system of the next series is invertase. Briefly: Enzyme assay of invertase in the presence of CON-1. It is filed as biochemical. The settings on record: same concentration as for alpha-glucosidase. On the procedure: The enzyme reaction was incubated with 5 mM sucrose as substrate in 50 mM acetate buffer pH 5.0 at 37° C. for 60 minutes. The production of glucose was determined as described in "Enzyme Assay of Alpha-Glucosidase Activity".

Another series concerns debranching enzyme. Briefly: Enzyme assay of debranching enzyme in the presence of CON-1. Format: biochemical. The settings on record: same concentration as for alpha-glucosidase. The method, then:
Debranching enzyme activity was determined according to the method of Lee, et al. Arch. Biochem. Biophys., 143:315-374 (1971). The reaction mixture contains 2 mg of pullulan, 100 mM sodium citrate buffer (pH 7.0), and incubated at 37° C. for 60 minutes. The reducing sugar produced from phytoglycogen was determined according to the method of Bernfeld, Methods Enzymol. 1:149-158 (1955).

For the next series, the system named is HIV-1. Particulars: CEMx174 cells. On the procedure: To test whether the alpha-glucosidase inhibitor activity of CON-1 could also intervene in HIV adsorption to target cells, thereby reducing infectivity and production of viral proteins, the following experiment was carried out: CEMx174 cells, as described by Hoxie, et al., J. Virol., 62: 2557 (1988), were infected at a concentration of 500,000 cells per ml for 2 hours at 37 degrees Centigrade with cell-free HIV-1, isolated as described in Alizon, et al., Nature, 312: 757 (1984), by adding virus at a concentration of 300 ng of HIV p24 protein per ml. Components of complete medium: RPMI 1640 with 10% fetal bovin serum, 2 mM L-glutamine, penicillin at 100 units/ml, and streptomycin at 100 ug/ml) with phytohemagglutin (PHA, 1 ug/ml; Sigma). After the 2 hour incubation, the virus inoculum was washed off and the cells were resuspended in complete culture medium containing various amounts of CON-1 protein. The cells were incubated in 96-well microtiter plates (5×10^4 cells in 200 ul per well), and cell-free supernatants were collected 72 hours after infection.
The amount of HIV p24 in the cell-free supernatant was determined with a commercially available ELISA kit (Coulter) according to the manufacture's instructions. The HCEM cell line described in Pauza, et al. J. Virol., 63:3700 (1989) was used to assess the effect of CON-1 on HIV production from chronically infected cells. HCEM cells were pretreated with CON-1 at 10 ug/ml for 4 hours, washed twice with phosphate-buffered saline and then incubated at 10^6 cells per ml in complete medium in the presence of CON-1 at 10 ug/ml, respectively. After 48 hours, cell-free supernatants were collected to determine HIV p24 levels by ELISA.

For a further series, the system named is beta-amylase. Briefly: Enzyme assay of beta-amylase activity in the presence of CON-1. Particulars: same concentration as for alpha-glucosidase. Format: biochemical. The method, then: (§1) The enzyme reactions of alpha- and beta-amylases contained 2 mg of phytoglycogen as substrate in 0.05 M sodium acetate buffer, pH 5.4; and were incubated at 37° C. for 60 minutes. The liberation of reducing sugar from phytoglycogen was measured by the reduction of 3,5-nitrosalicyclic acid as described by Bernfeld, Methods Enzymol. 1:149-158 (1955).

For a further series, the system named is glucoamylase. Particulars: same concentration as for alpha-glucosidase.
The format of series [1] is physicochemical. From the text: The crude preparation (either cell lysate, whole saliva, or parotid exudate) is collected at subzero temperatures, preferably into a dry-ice chilled container. The preparation is then heated to a temperature between 75 and 100 degrees Centigrade, for a period sufficient to cause denaturation of proteases. At lower temperatures, the time of exposure to heat may be increased up to one hour. Best results are obtained by heating an aliquot of the crude preparation in boiling water from 2 to about 10 minutes. Precipitated protein is then removed by centrifugation followed by an alcohol precipitation. The alcohol may be isopropyl, methyl, or ethyl, ethyl being preferred because of its nontoxic or USP properties. Alcohol precipitation is generally carried out overnight at 4 to 15 degrees.
In conventional purification strategies, the protein was either degraded too rapidly to remove contaminating proteases, or the protein is inherently unstable in the presence of alterative materials. Among those techniques attempted in purifying CON-1 and CON-2 are the following: Sephadex gel filtration, DEAE cation and anion exchange chromatography, preparative gradient SDS-gel electrophoresis, solvent precipitation in an initial step (methanol, propanol, isopropanol, butanol acetone, and phenol), concanavalin A affinity column chromatography, and blue dye gel affinity column chromatography. […]

The next series relates to alpha-amylase. Briefly: Enzyme assay of alpha-amylase activity in the presence of CON-1. Particulars: same concentration as for alpha-glucosidase. It is filed as biochemical. On the procedure:
as §1

The test system of another series is CEM×179 cells. It is filed as cell-based. On the procedure:
T cell proliferation assay: CEM×179 cells (2×10^5/well in 200 ul of complete medium) were cultured during 6 days at 37° C. in flat-bottomed microtiter wells, and T cell proliferation was evaluated following a 6 hr pulse of (3H)-thymidine (0.5 uCi/well) (Amersham, Bucks, England). Cultures were harvested (Skatron Instruments, Lier, Norway) and the radioactivity was measured using a beta-counter (Packard Gamma 5500).

The mark [2] stands for this setting: supernatant 72 hours after infection (FIG. 9).

Entries after “also recorded” stand apart in the source; their conditions may differ. Where two headings read alike, the source gives them in different places.

Chain of yeast alpha-glucosidase (P53341 whole entry): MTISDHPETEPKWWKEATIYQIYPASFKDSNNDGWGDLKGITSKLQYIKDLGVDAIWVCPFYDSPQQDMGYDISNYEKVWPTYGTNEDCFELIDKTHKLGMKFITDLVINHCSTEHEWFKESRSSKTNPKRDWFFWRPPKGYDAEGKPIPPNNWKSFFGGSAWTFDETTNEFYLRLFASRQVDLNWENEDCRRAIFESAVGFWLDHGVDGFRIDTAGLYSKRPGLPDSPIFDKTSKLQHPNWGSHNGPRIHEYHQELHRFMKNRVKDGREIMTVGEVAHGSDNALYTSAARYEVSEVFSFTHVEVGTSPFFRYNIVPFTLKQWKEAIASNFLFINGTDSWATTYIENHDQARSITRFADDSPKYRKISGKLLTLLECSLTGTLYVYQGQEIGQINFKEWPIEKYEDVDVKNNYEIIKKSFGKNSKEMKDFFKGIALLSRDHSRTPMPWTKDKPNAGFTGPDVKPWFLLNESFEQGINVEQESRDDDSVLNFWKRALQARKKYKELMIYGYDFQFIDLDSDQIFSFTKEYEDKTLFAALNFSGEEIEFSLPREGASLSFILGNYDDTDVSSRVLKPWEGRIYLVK

B1: alpha-amylase: salivary protein tested for effect on alpha-glucosidase (protein, UniProt P0DUB6 16-511, looked up)
Alpha-amylase 1A: QYSSNTQQGRTSIVHLFEWRWVDIALECERYLAPKGFGGVQVSPPNENVAIHNPFRPWWERYQPVSYKLCTRSGNEDEFRNMVTRCNNVGVRIYVDAVINHMCGNAVSAGTSSTCGSYFNPGSRDFPAVPYSGWDFNDGKCKTGSGDIENYNDATQVRDCRLSGLLDLALGKDYVRSKIAEYMNHLIDIGVAGFRIDASKHMWPGDIKAILDKLHNLNSNWFPEGSKPFIYQEVIDLGGEPIKSSDYFGNGRVTEFKYGAKLGTVIRKWNGEKMSYLKNWGEGWGFMPSDRALVFVDNHDNQRGHGAGGASILTFWDARLYKMAVGFMLAHPYGFTRVMSSYRWPRYFENGKDVNDWVGPPNDNGVTKEVTINPDTTCGNDWVCEHRWRQIRNMVNFRNVVDGQPFTNWYDNGSNQVAFGRGNRGFIVFNNDDWTFSLTLQTGLPAGTYCDVISGDKINGNCTGIKIYVSDDGKAHFSISNSAEDPFIAIHAESKL
In the case of B1, the “inhibitory effect on alpha-glucosidase activity (in words)” value with yeast alpha-glucosidase is “significantly enhance enzyme activity”.

B2: CON-1: basic salivary proline-rich glycoprotein which binds concanavalin A, 124 amino acids, large form (protein)
chain: SPPGKPQGPPPQGGNQPQGPPPPPGKPQGPPPQGGNKPQGPPPPGKPQGPPPQGDNKSQSARSPPGKPQGPPPQGGNQPQGPPPPPGKPQGPPPQGGNKSQGPPPPGKPQGPPPQGGSKSRSSR
modifications: glycoprotein; glycosylation occurs at one N-linked site (acetylglucosamine on asparagine of glycine-glycine-asparagine-lysine)
Turning to B2, in the series with yeast alpha-glucosidase, the “inhibitory effect on alpha-glucosidase activity (in words)” value is reported as “inhibition of essentially all enzyme activity; also recorded: completely inhibited the enzyme; also recorded: nearly complete”, the “Specific Inhibitory Activity” value is given as “about 2810” and the “change of inhibitory activity after removal of acetylglucosamine (in words)” value was “marked reduction in inhibitory activity”. Further, the “inhibitory activity lost after deglycosylation” value with yeast alpha-glucosidase (CON-1 treated with PNGase versus native glycosylated CON-1 (FIG. 8)) is on record as “about 50%”. In addition, in the series with yeast alpha-glucosidase (listed as SDS Gel Electrophoresis Slice), the “Specific Inhibitory Activity” value is recorded as 2810.0. For the same molecule, the “inhibitory effect on invertase (in words)” value with invertase is “None of the other enzymes is significantly affected; also recorded: essentially no inhibitory effect”. Moreover, in the series on debranching enzyme, the “inhibitory effect on debranching enzyme (in words)” value is “None of the other enzymes is significantly affected; also recorded: essentially no inhibitory effect”. Besides, in the series with HIV-1 (setting [2]), the “concentration at which significant inhibition of p24 production first occurs” value was determined as 2.5 µg/mL and the “concentrations showing marked inhibition of p24 production” value was “above 1.25 ug/ml”. Further, the “effect on HIV p24 production (in words)” value with HIV-1 (up to 20 ug/ml) is listed as “profound reductions in signal markers of viral replication”. Also, the “inhibitory effect on beta-amylase (in words)” value in the series on beta-amylase was “None of the other enzymes is significantly affected; also recorded: essentially no inhibitory effect”. Besides, the “inhibitory effect on glucoamylase (in words)” value in the series with glucoamylase was “essentially no inhibitory effect”. The “stability to denaturing conditions (in words)” value in [1] is “extreme stability to denaturing conditions”. Also, the “inhibitory effect on alpha-amylase (in words)” value in the series with alpha-amylase is listed as “None of the other enzymes is significantly affected; also recorded: essentially no inhibitory effect”. In addition, in the series with CEM×179 cells, the “amount of protein showing no toxic effect on the cell line” value is reported as “up to 50 ug/assay”.

B3: CON-2: small form analog of CON-1, salivary glycoprotein of 82 amino acids (protein)
chain: SPPGKPQGPPPQGGNQPQGPPPPPGKPQGPPPQGGNKPQGPPPPGKPQGPPPQGGNKSQGPPPPGKPQGPPPQGGSKSRSSR
As for B3, in the series with yeast alpha-glucosidase, the “inhibitory effect on alpha-glucosidase activity (in words)” value is “nearly complete” and the “change of inhibitory activity after removal of acetylglucosamine (in words)” value was “marked reduction in inhibitory activity”. For the same molecule, the “inhibitory effect on invertase (in words)” value with invertase is recorded as “essentially no inhibitory effect”. Besides, in the series with debranching enzyme, the “inhibitory effect on debranching enzyme (in words)” value is “essentially no inhibitory effect”. For the same molecule, the “inhibitory effect on beta-amylase (in words)” value in the series on beta-amylase was “essentially no inhibitory effect”. The “inhibitory effect on glucoamylase (in words)” value in the series on glucoamylase is “essentially no inhibitory effect”. The “stability to denaturing conditions (in words)” value in [1] was “extreme stability to denaturing conditions”. Also, the “inhibitory effect on alpha-amylase (in words)” value in the series with alpha-amylase is given as “essentially no inhibitory effect”.

(Values after patent publication US5981720A, “Human salivary proteins and fragments thereof having alpha-glucosidase inhibitory activity” (priority 1997, dated 1999).)
